Experimental data taken from patent publication US20160213771A1.

Biological target: CXC chemokine receptor 2 (CXCR2) (UniProt P25025)
Test: cell-based or functional assay

Sequence of UniProt P25025 (P25025 whole entry): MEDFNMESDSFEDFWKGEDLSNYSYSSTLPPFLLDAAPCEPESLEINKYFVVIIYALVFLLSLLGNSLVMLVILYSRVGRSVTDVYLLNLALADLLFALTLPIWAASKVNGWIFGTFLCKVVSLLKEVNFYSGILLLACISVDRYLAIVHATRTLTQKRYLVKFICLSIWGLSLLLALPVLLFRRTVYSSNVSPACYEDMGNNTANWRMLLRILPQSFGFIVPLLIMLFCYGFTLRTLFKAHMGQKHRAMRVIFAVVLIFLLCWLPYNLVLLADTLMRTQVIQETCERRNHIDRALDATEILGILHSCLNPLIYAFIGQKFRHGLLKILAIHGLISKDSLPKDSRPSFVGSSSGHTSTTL

Row | Substance | chemotactic response in Transwell migration assays [%]
1 | UL146 (ligand) | > 500
2 | IL-8 (from UniProt P10145 28-99) (ligand) | > 500
